System: MS2 coat protein
Experiment: apparent KD of MS2 coat protein; designed switch direction (-1 OFF switch, 1 ON switch): -1; higher = weaker reporter binding
Method in brief: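 Designed RNA switches were transcribed on Illumina chips by stalled E. coli RNA polymerase and titrated with SNAP-549-labelled MS2 coat protein from 0.7 or 1.5 nM, doubling to 3 µM. Step length ran from 0.8–1.5 h at the lowest concentration to 10–20 min at the highest. The apparent KD is the median over clusters for each design, from curve-fitted normalised cluster fluorescence.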

[1] = input ligand: microRNA oligo, concentration not stated
[2] = Eterna round: R95, input ligand: microRNA oligo, concentration not stated
[3] = Eterna round: R95, input ligand: FMN 200 uM
[4] = Eterna round: R95, input ligand: none

| Sequence | apparent KD of MS2 coat protein (input ligand: FMN 200 uM) | apparent KD of MS2 coat protein (input ligand: none) | apparent KD of MS2 coat protein [2] | other results |
| --- | --- | --- | --- | --- |
| GGCUGCAAUGUAGGAUAUCUGCACGAUUAGUGCAGAGAAGGACAUGAGGAUCACCCAUGUAUAGUAGCUUCGGCUACAGCAGCC [ENG1-D1] (Eterna round: R96, puzzle: Exclusion NG 1) | 17.1 nM | 15.6 nM | – | apparent KD of MS2 coat protein [1]: 14.2 nM |
| CAGUACUGAGGAUAUACAUGAGGAUCACCCAUGUUUUCCAGCUAGGAUACUAGCAAGUGUAGAAGGCAGUACUG [Mat - Exclusion 3 - Eli Mod - D6] (Eterna round: R97, puzzle: Exclusion 3) | 273 nM | 24.5 nM | – | – |
| AAUACAAGCUAUUGAUCCCACAUGAGGAUCACCCAUGUAGGUGGCCGUGAGACCACCUUUACGAUAGCUCGUCUUAU [Sensor-V1 #51] (Eterna round: R97, puzzle: Sensor, turn-off variant 1) | 277 nM | 274 nM | – | – |
| GUCACAUGGGUAUAGGAUCACAUGAGGAUCACCCAUGUGACUAACAAGCUUUUUGCUCGUCUUAUGUCUAUGUGAAG [Stov1/18-A1] (Eterna round: R97, puzzle: Sensor, turn-off variant 1) | 42.9 nM | 26.9 nM | – | – |
| GACUGCCGAGGAUAUACAUGAGGAUCACCCAUGUGCUUCAGCAUUUAAUAAUGCAUGGGUAGAAGGCGGUAGUC [LRO-Excl3-12] (puzzle: Exclusion 3) | – | – | 40.5 nM | – |
| CUGACGUCAGGAUAUAGCAUACACUGACUAGAUGGACAGGGUUAGAAGGGACAUGAGGAUCACCCAUGUGGUUU [Eternabot (L1) Solution 81] (Eterna round: R97, puzzle: Exclusion 4) | 56.3 nM | 50.5 nM | – | – |
| CGUGACUCAGGAUAUCUAUUAUAUCACAUGAGGAUCACCCAUGUCCAGCGAAAGCUGGAGGGAGAAGGGAGUCACG [Fiskers Ex 5 - 44] (puzzle: Exclusion 5) | – | – | 136 nM | apparent KD of MS2 coat protein [3]: 52.3 nM; apparent KD of MS2 coat protein [4]: 108 nM |
| AGAUCACAUGAGGAUCACCCAUGUGAGGAUAUAGAUUCAAGAGCUUCGGCUCUAAAGUCUAGAAGGCACUAUGA [EX1 #47] (Eterna round: R97, puzzle: Exclusion 1) | 29.1 nM | 25.4 nM | – | – |
| CCCAGGGCAGGAUAUAGAGGGCUAAACAUGAGGAUCACCCAUGUGACCUCGGAACAGUUGCUAGAAGGGCCAGAUU [Maedonxe] (puzzle: Exclusion 5) | – | – | 17.7 nM | apparent KD of MS2 coat protein [3]: 29.8 nM; apparent KD of MS2 coat protein [4]: 22 nM |
| UUUUACAUAGGAUAUAGUUUCUUUUACAUGAGGAUCACCCAUGUUUCUCUUCUCUCUCUUCUAGAAGGAUGUUUCU [JR_E5_Sub013] (puzzle: Exclusion 5) | – | – | 33.5 nM | – |
| ACCUCACAUGAGGAUCACCCAUGUCAGGAUAUCUUUUAUUGCAGCAAUCCUGUCGCUGAGAGAAGGGACAUUAA [EX1 #26] (Eterna round: R97, puzzle: Exclusion 1) | 30.7 nM | 26.5 nM | – | – |
| GUCAGCUCGUGAGGAUAUACAUGCGUGCUUCGGCACGUAUGAUAGAUCACAUGAGGAUCACCCAUGUAGAAGGUACGAGCUGAC [ENG2/4-C1] (Eterna round: R96, puzzle: Exclusion NG 2) | 13.4 nM | 14.8 nM | – | apparent KD of MS2 coat protein [1]: 12.2 nM |
| AAAUAUAAGCAAAGAUCCUACAUGAGGAUCACCCAUGUGCUCGUCUUAUAAAGUACUAUCACGAAAGUGAUAGUACA [Sensor 3, v1 - 19] (puzzle: Sensor v3, turn-off variant 1) | – | – | 49 nM | apparent KD of MS2 coat protein [3]: 117 nM; apparent KD of MS2 coat protein [4]: 215 nM |
| UGUUGUUACGUAGGAUAUCCACCAACAGGUGGAAGGAUAUGGAAACAGAAGGUUCGCCAACAGGCGGAGAAGGACGUGUUAACU [pwkr exNG2 2xF7 2xFMN.23] (Eterna round: R96, puzzle: Exclusion NG 2) | 2.79 nM | 288 nM | – | apparent KD of MS2 coat protein [1]: 3780 nM |
| GUGUACAGAGGAUAUACACGAGUAGUUACGAAAGUAACUACACAUGAGGAUCACCCAUGUAGAAGGCUGUACAC [Dot plot directed] (puzzle: Exclusion 2) | – | – | 20.4 nM | – |
| AAUAGUAAUAAGGAUAUCACUAGCUUCGGCUAGUGAGAAGGUAUUACAUGAGGAUCACCCAUGUGGUCAAUUAA [E6/4-A1] (Eterna round: R97, puzzle: Exclusion 6) | 360 nM | 922 nM | – | – |
| GUGUAGAUAGGAUAUGCUUUGAGCCUACGAAAGUACGCUCGACAUGAGGAUCACCCAUGUAGAAGGGUUUACAC [LRO-Excl2-05] (puzzle: Exclusion 2) | – | – | 88.7 nM | – |
| CCACUGUCAGGAUAUCGUGCAUAACGUUUACAUUUUAUGUGCGAGAAGGGACAUGAGGAUCACCCAUGUAAACG [Omei Ex4 A28PK2] (Eterna round: R97, puzzle: Exclusion 4) | 206 nM | 808 nM | – | – |

| Sequence | apparent KD of MS2 coat protein (input ligand: FMN 200 uM) | apparent KD of MS2 coat protein (input ligand: none) | apparent KD of MS2 coat protein [2] | other results |
| --- | --- | --- | --- | --- |
| GAGUACUUAGGAUAUACAUGAGGAUCACCCAUGUCUAGGCGGCGCUGGGUCCCUCGCAGUAGAAGGAAGCGCUG [Ceeranat] (puzzle: Exclusion 3) | – | – | 20.6 nM | – |
| AGACUUAUAGGAUAUACAUGAGGAUCACCCAUGUCGCCAGGCGGUAGCAGAGUCUUUUGUAGAAGGAUGACAAC [Eternabot (Original) Solution 35] (Eterna round: R97, puzzle: Exclusion 3) | 20.6 nM | 21.2 nM | – | – |
| AAAUACAAGCAAAGAUCCUACAUGAGGAUCACCCAUGUGUUCGUCUUAUAAAGUACUAUCACGAAAGUGAUAGUACA [Sensor 3, v1 - 18] (puzzle: Sensor v3, turn-off variant 1) | – | – | 1100 nM | apparent KD of MS2 coat protein [3]: 309 nM; apparent KD of MS2 coat protein [4]: 198 nM |
| CACGAACAUGAGGAUCACCCAUGUCAGGAUAUGAGGCUUUGCGUGCCGCAUUUUGGUCUUAGAAGGGACAGCCG [Eternabot (L2) Solution 49] (Eterna round: R97, puzzle: Exclusion 1) | 22.3 nM | 23 nM | – | – |
| CUUCCCAAAGGAUAUCACGGUAAUAACAUGAGGAUCACCCAUGUGCAAUUCGUGUCCCUGUGAGAAGGUUGAGAAG [Anlabe] (puzzle: Exclusion 5) | – | – | 11.1 nM | apparent KD of MS2 coat protein [3]: 17.9 nM; apparent KD of MS2 coat protein [4]: 12 nM |
| UCGGCGCGAGGAUAUGCGGUUCCUCCCUCGGGCCGGAGCGUACAUGAGGAUCACCCAUGUAGAAGGCGCGCCGC [Apr-15 SS2-36] (puzzle: Exclusion 2) | – | – | 11.7 nM | – |
| UCGCUGCGAGGAUAUACGUGCGCGCGCUUUCGUUUGCGCGUACAUGAGGAUCACCCAUGUAGAAGGCGCGCUGC [Apr-15 SS2-6] (puzzle: Exclusion 2) | – | – | 12.7 nM | – |
| UUUACAAGCUAUAGAUCCCACAUGAGGAUCACCCAUGUUCCUGGCCGUGAGGCUAGGUAAACUAUUGCUCGUCUUAU [JL TOV1 3.66] (Eterna round: R97, puzzle: Sensor, turn-off variant 1) | 252 nM | 294 nM | – | – |
| AUUUUGUGAGGAUAUUAGUUGUAGAAAAUUAUUAGUUUAGCUGAGAAGGCACAUGAGGAUCACCCAUGUAAAUC [JR_Ex4_Sub043] (Eterna round: R97, puzzle: Exclusion 4) | 26.7 nM | 18.6 nM | – | – |
| AGUAGUUGUUUCCGUUCUUACAUGAGGAUCACCCAUGUUUCUUGUCGUGCACGCGAUGCUCGUCAGACUACCAGAUG [salish99_TOv1_r3_058] (puzzle: Sensor v3, turn-off variant 1) | – | – | 69.9 nM | apparent KD of MS2 coat protein [3]: 52.5 nM; apparent KD of MS2 coat protein [4]: 61.9 nM |
| AGAACACAUGAGGAUCACCCAUGUCAGGAUAUCGACUGAACAGCUUCGGCUGUUCAGUCGAGAAGGGACAAUUA [Brourdxlusion 6 - Jieux - Exclusion 1] (Eterna round: R97, puzzle: Exclusion 1) | 120 nM | 55.8 nM | – | – |
| ACUUACUGAGGAUAUACAUAGAUUUACAUGAGGAUCACCCAUGUUCCUCUAUGUAUAUAUGUAGAAGGCAGAAGAU [Mat - Exclusion 5 - JL Mod - D34] (Eterna round: R97, puzzle: Exclusion 5) | 56.9 nM | 18.9 nM | – | – |
| CCUAAACAUGAGGAUCACCCAUGUGAGGAUAUGAUGCGAAUAAAGAAAGAAGAAAGCAUCAGAAGGCACAUAGG (Eterna round: R96, puzzle: Exclusion 1) | – | – | – | apparent KD of MS2 coat protein [1]: 131 nM |
| UAAUAACAUGUAGGAUAUGCGUGGCGAAGCUAUGCAGAAGGACAUGAGGAUCACCCAUGUUAAAGCGUCUGCGUACAGAUGCGA [Mat - Exclusion NG 1 - Mod of JL - D97] (Eterna round: R96, puzzle: Exclusion NG 1) | 188 nM | 31.1 nM | – | apparent KD of MS2 coat protein [1]: 30.1 nM |
| GCAGUAUGAGUUAGGAUAUGAUGAUUUUUUUUAUUUCAGAAGGAACUUGAGGAUCACCCAAGUUAAGAUUUGGU [JR_BMEx4_Sub068] (Eterna round: R97, puzzle: Brourd's mod of Exclusion 4) | 45.6 nM | 24.6 nM | – | – |
| AGAAAGGCAGGAUAUCGAUAAUAAAACAUGAGGAUCACCCAUGUGAGGCCGCGUGUAACUCGAGAAGGGCUACACG [Biarquma] (puzzle: Exclusion 5) | – | – | 16.6 nM | apparent KD of MS2 coat protein [3]: 16.1 nM; apparent KD of MS2 coat protein [4]: 15.4 nM |
| CUGAUGUGAGGAUAUCUACGCCAUGUCUUUGACAUGGCGCAAGAGAAGGCACAUGAGGAUCACCCAUGUACUUC [jl-ex4-4.41 ViennaUCT mod] (Eterna round: R97, puzzle: Exclusion 4) | 143 nM | 27.9 nM | – | – |
| GACCGGUAAGGAUAUGUAUCUUUCAGGACACUACCGAAGAUGCAGAAGGUACAUGAGGAUCACCCAUGUGGGCU [Eternabot (L1) Solution 36] (Eterna round: R97, puzzle: Exclusion 4) | 227 nM | 75.8 nM | – | – |

— the supplement of paper PMC9170038
